From patent publication US20030180295A1, “Angiocidin: a Cys-Ser-Val-Thr-Cys-Gly specific tumor cell adhesion receptor” (Philadelphia Health and Education Corporation, priority 1999, published 2003)
One block for each substance: values may come before it. No end group written: not given here. *: point of attachment. Acm = CC(=O)NC*

Key:
[1] = biological target: T1, biotin-angiocidin complex binding to TSP-1 (Homo sapiens, UniProt P55036, INS254GER); assay: Biotin-avidin receptor binding assay: competition; settings: for competition of biotin-angiocidin binding to TSP-1: Example 23, FIGS. 29 and 30; for peptide competition of TSP-1 receptor binding: Example 25, peptide 1 mg/ml, FIG. 32
T1 sequence (P55036 with tags, fused parts or gaps INS254GER): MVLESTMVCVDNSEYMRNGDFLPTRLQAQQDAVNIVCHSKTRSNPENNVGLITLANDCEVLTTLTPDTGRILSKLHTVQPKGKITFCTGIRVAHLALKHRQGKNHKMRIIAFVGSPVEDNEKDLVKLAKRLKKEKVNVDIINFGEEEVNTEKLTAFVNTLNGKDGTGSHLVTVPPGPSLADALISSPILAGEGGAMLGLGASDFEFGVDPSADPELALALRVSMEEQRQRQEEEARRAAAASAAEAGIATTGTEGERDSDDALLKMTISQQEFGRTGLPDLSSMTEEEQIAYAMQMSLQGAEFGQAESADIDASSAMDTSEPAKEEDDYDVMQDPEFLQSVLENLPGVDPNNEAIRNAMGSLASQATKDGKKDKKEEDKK
Method: In the following experiments, TSP-1 was covalently bound to a substrate, biotinylated angiocidin was added to the plate, and avidin-peroxidase was added to measure how much biotinylated angiocidin was attached to the TSP-1. The avidin-peroxidase was measured using a spectrophotometer at an absorbance of 450 nm.
Free angiocidin was added to the system to compete with the biotinylated angiocid in. […] Immobilized BSA was used as a negative control.
The TSP-1 peptide Cys-Ser-Val-Thr-Cys-Gly (SEQ ID NO: 1) was added to the system to compete with the TSP-1 on the plate for binding with the biotinylated angiocidin. The scrambled peptide Val-Cys-Thr-Gly-Ser-Cys (SEQ ID NO: 15) was used as a negative control and had no effect.
The avidin-biotin system discussed above was used to evaluate the competitive effect of various peptides on the binding of TSP-1 and angiocidin. […] The scrambled peptide Val-Cys-Thr-Gly-Ser-Cys-Gly (SEQ ID NO: 21) and the d-orientation peptide d-Cys-Ser-Val-Thr-Cys-Gly (SEQ ID NO: 22) were used as negative controls.

TSP-1 [2] = biological target: T2, TSP-1 (Homo sapiens, UniProt P07996); assay: Affinity Sensor System (resonant mirror biosensor): binding to TSP-1 coupled to cuvette; settings: peptide alone, TSP-1 immobilized in cuvette
T2 sequence (P07996 19-1170): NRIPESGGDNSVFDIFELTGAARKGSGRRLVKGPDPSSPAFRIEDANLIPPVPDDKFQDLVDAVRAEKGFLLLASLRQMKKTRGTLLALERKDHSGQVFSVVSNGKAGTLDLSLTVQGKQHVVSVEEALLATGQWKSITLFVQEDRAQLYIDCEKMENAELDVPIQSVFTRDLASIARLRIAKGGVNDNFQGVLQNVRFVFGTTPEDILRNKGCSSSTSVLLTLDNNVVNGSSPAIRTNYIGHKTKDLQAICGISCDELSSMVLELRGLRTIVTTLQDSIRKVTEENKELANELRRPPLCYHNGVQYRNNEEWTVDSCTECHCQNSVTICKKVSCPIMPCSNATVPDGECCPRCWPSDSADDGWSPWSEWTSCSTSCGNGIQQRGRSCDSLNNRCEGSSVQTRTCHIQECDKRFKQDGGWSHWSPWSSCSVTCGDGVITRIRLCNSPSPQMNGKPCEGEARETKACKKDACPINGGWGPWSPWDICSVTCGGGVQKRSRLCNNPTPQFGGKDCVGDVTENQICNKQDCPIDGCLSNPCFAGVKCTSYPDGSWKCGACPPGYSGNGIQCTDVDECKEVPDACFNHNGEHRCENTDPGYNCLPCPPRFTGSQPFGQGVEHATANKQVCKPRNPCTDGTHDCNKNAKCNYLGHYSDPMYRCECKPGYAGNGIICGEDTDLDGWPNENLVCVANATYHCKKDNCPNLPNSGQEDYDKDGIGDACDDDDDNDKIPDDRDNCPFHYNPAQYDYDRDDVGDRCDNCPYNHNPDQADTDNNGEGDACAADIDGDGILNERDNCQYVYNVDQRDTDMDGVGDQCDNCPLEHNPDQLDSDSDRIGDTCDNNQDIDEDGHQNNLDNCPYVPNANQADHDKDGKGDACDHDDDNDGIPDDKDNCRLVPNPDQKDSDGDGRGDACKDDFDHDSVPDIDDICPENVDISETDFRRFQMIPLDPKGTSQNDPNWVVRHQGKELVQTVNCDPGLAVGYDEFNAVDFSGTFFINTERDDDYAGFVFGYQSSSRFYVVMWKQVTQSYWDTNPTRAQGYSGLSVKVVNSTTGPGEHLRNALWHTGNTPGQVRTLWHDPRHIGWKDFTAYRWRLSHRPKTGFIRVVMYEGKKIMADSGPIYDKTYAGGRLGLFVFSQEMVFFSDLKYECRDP
Method: (§1) Binding of undenatured (in the ligand blot protocol above, the receptor is denatured by SDS) recombinant receptor to TSP-1 was evaluated using the Affinity Sensor System, Cambridge, UK. This is an optical binding method that uses a cuvette to which either ligand or receptor is covalently coupled. A laser beam is used to detect bound proteins to the protein-derivatized cuvette surface. This method is highly sensitive and measures both the association and dissociation rate constants for ligand receptor interactions. The instrument assumes that one molecule of receptor binds one molecule of TSP-1 and calculates the dissociation constant (KD) according to the following relationships:
1) kass[R][TSP-1]=kdiss[R-TSP-1] at equilibrium, where kass is the second order rate constant for association and kdiss is the first order rate constant for dissociation
2) KD=[R][TSP-1]/[R-TSP-1]=kdiss/kass
3) [R-TSP-1]t=[R-TSP-1]eq[1-exp(-kont)], where the instrument response measure in arc seconds is proportional to receptor-TSP-1 complex R-TSP-1].
4) kon=kass[L]+kdiss where kon is the pseudo-first order rate constant for receptor TSP-1 interaction.
(§2) About 1 μg of TSP-1 was coupled to the cuvette through its amino groups to COOH groups on the cuvette surface. Unreacted groups on the cuvette surface were then blocked with ethanolamine and albumin. […] A dissociation constant of […] was calculated from a plot of the pseudo first order rate constant for association versus the concentration of the receptor, as shown in FIG. 7. Instrument response vs time readings shown in FIG. 8, where the instrument response is proportional to the concentration of receptor-TSP-1 complex, were used to plot the data points on FIG. 7.
(§3) […] The peptides used were Val-Cys-His-Ser-Lys-Thr-Arg (SEQ ID NO: 8), Val-Cys(Acm)-His-Ser-Lys-Thr-Arg (SEQ ID NO: 9), and Pro-His-Ser-Arg-Asn (SEQ ID NO: 10). The first two peptides are derived from the binding portion of the receptor, where it interacts with the Cys-Ser-Val-Thr-Cys-Gly (SEQ ID NO: 1) portion of the TSP-1 protein. The third peptide is a control.

[3] = tested on: Bovine aortic endothelial cells (BAEC); assay: ALAMAR BLUE cell viability assay; format: cell-based; settings: for cell viability, angiocidin and fragments: Example 27, FIG. 34
Method: Bovine aortic endothelial cells (BAEC), human umbilical vein endothelial cells (HUVEC), fibroblast cells, A549 human lung carcinoma cells (A549), MDA-MB231 human breast carcinoma cells (MB231), MCF7 human breast carcinoma cells (MCF7) were treated with 37 μg/ml of receptor, or buffer alone, for 24 hours. Viability of the cells was measured using the ALAMAR BLUE™ assay, which measures the capacity of cells to metabolize the ALAMAR BLUE™ dye. The ALAMAR BLUE™ assay (available from Biosource International, Camarillo, Calif.) quantitatively measures the proliferation of cell lines and can establish the relative cytotoxicity of chemical agents. The assay incorporates a fluorometric/colorimetric growth indicator based on detection of metabolic activity. The system incorporates an oxidation-reduction (redox) indicator that both fluoresces and changes color in response to chemical reduction of growth medium resulting from cell growth. This causes the redox indicator to change from its oxidized, non-fluorescent, blue form to its reduced, fluorescent, red form. Data can be collected using either fluorescence-based instrumentation (530-560 nm excitation wavelength and 590 nm emission wavelength) or absorbance-based instrumentation (570 nm and 600 nm).
BAEC and BSM cells were treated with increasing concentrations of angiocidin (0, 0.625, 1.25, 2.5, 5, 15, 26 and 37 μg/ml) for 24 hours. Cell viability was measured using the ALAMAR BLUE Tm assay. […] In contrast, BSM cells are unaffected.
The methods of Example 21 were followed, except BAEC cells were used. Additionally, TSP-1 was added at both 20 μg/ml and 5 μg/ml.
As discussed in Example 19 above, angiocidin was added to BAEC cells. Fragments of angiocidin were added as well. […] GST was used as a negative control. V36-R42, the active site of the antisecretory factor, had no effect, illustrating that angiocidin plays a different role from antisecretory factor.
Bovine aortic endothelial cells (BAEC) were cultured overnight in serum-free media containing either 37 μg/ml his-tagged angiocidin or his-tagged GST. Both angiocidin and GST were expressed in bacteria transformed with the pTrcHisA expression vector and purified on nickel affinity chromatography under non-denaturing conditions. Viability was measured by the ALAMAR BLUE™ assay.
This study examined the effect of anti-angiocidin antibody on angiocidin-mediated inhibition of BAEC viability. BAEC were cultured overnight in serum-free media containing either 5 μg/ml angiocidin, 5 μg/ml angiocidin plus 100 μg/ml control IgG, or 5 μg/ml angiocidin plus 100 μg/ml anti-angiocidin IgG. Viability was measured using the ALAMAR BLUE™ assay, described above.
The endothelial cells (BAEC) were incubated overnight 37 μg/ml of the angiocidin, fragments, and GST. Viability was measured using the ALAMAR BLUE™ assay.

B16-F10 Melanoma Cells = assay: Cell adhesion to immobilized receptor peptides; format: cell-based, mouse; settings: Example 12, FIG. 14
Method: For the adhesion assay, in a 96 well plate, duplicate wells were covered with either TSP-1 (40 μg/ml), fibronectin (40 μg/ml), or and 1% bovine serum albumin (BSA). The wells were dried out overnight and then blocked with BSA. 100 μl of a suspension containing 2×10^5 cells were plated in the protein covered wells and incubated at 37^□ C. for 20 minutes to 1 hour. The non-adherent cells were removed and the wells were washed with a Hepes buffer. The adherent cells were fixed with 2.5% glutaraldehyde for 10 minutes and stained with 0.2% Giemsa. The stain was washed off and the cells were counted in a field of 1 mm square. Cells adhering to BSA were considered background while cells adhering to fibronectin were the positive control.
The method of Example 12 was followed except the receptor peptides Val-Cys-His-Ser-Lys-Thr-Arg (SEQ ID NO: 8) and Val-Cys(Acm)-His-Ser-Lys-Thr-Arg (SEQ ID NO: […]) were immobilized on the plates. TSP-1 and fibronectin were also immobilized on plates, as well as negative control peptides (Ala-Ser-Val-Thr-Ala-Arg (SEQ ID NO: 11) and Pro-His-Ser-Arg-Asn (SEQ ID NO: 10)) and bovine serum albumin. […] This provides support for the theory that another protein may be associated with TSP-1 and its receptor, or that the receptor is released and rebound to the membrane of the cell by another protein.

receptor-TSP-1 complex = biological target: T3, receptor-TSP-1 complex (Homo sapiens, UniProt P55036, INS254GER); assay: Affinity Sensor System: peptide competition of receptor binding to immobilized TSP-1; settings: 10 fold molar excess of peptide
T3 construct: Full length cDNA cloned in the PBK-CMV vector was used as a template; 6xHis (pTrcHisA leader) (N); made in house; host or cells: bacteria (pTrcHisA vector)
T3 sequence (P55036 with tags, fused parts or gaps INS254GER): T1 sequence (P55036 with tags, fused parts or gaps INS254GER)
Method: as §1, §2, §3

TSP-1 [4] = biological target: T2, TSP-1; assay: Optical binding of angiocidin fragments to TSP-1 derivatized cuvette; settings: test proteins at 10 nm in PBS buffer
Method: This study examines the amino terminal (Met1-Lys132) and carboxy terminal (IIe248-Lys380) portions of angiocidin (SEQ ID NOS: 24 and 25, respectively). The binding of undenatured recombinant angiocidin fragments was compared to full length angiocidin. GST was used as a negative control. Binding was evaluated using an optical binding method that uses a cuvette to which TSP-1 is covalently coupled. A laser beam was used to detect whether the test protein (fragments, angiocidin, or GST) is bound to the TSP-1 derivatized cuvette surface. The cuvette was derivatized with 1 μg of TSP-1. The cuvette surfaces were blocked with a 1% BSA solution to prevent nonspecific binding. The test proteins were added at a concentration of […] in a PBS buffer.

competition of biotin-angiocidin binding to TSP-1 [1]: had no effect
Substance: VCTGSC (cysteine pairing not given here) [Val-Cys-Thr-Gly-Ser-Cys (SEQ ID NO: 15), scrambled peptide, negative control]

direct binding to immobilized TSP-1 (TSP-1 [2]): bind directly to the immobilized TSP-1
Substance: Val-Cys(Acm)-His-Ser-Lys-Thr-Arg (VC(Acm)HSKTR)
cell adhesion to immobilized peptide (B16-F10 Melanoma Cells): cause the cells to adhere to the plates, with similar affinity to the positive controls fibronectin and TSP-1

extent of receptor binding, % of buffer control (receptor-TSP-1 complex): 88%
Substance: Val-Cys(Acm)-Thr-Gly-Ser-Cys(Acm) (VC(Acm)TGSC(Acm)) [scrambled peptide]

binding to TSP-1 derivatized cuvette (TSP-1 [4]): show no binding activities
Substance: carboxy terminal fragment: carboxy terminal (IIe248-Lys380) portion of angiocidin (SEQ ID NO: 25)
anti-endothelial activity compared to angiocidin ([3]; 37 μg/ml, overnight): had activity levels similar to the negative control | cell viability, angiocidin and fragments [3]: did not affect cell viability

peptide competition of TSP-1 receptor binding [1]: inhibited binding
Substance: d-Gly-Cys(Acm)-Thr-Val-Ser-Cys(Acm) (GCTVSC; not fully specified (residues 2, 3, 4, 5, 6); printed as d-Gly-Cys(Acm)-Thr-Val-Ser-Cys(Acm); cysteine pairing not given here; also: d- prefix stated for the peptide (mirror image, D-orientation)) [mirror image acetylated peptide]

More lines, now with the values behind:

Substance: CSVTCG (cysteine pairing not given here) [Cys-Ser-Val-Thr-Cys-Gly (SEQ ID NO: 1), TSP-1 peptide]
competition of biotin-angiocidin binding to TSP-1 [1]: effectively competed with TSP-1 for the biotin-angiocidin complex | peptide competition of TSP-1 receptor binding [1]: effectively inhibited binding

Substance: KVWVLPI
peptide competition of TSP-1 receptor binding [1]: inhibited the binding

Substance: Pro-His-Ser-Arg-Asn (PHSRN) [Pro-His-Ser-Arg-Asn (SEQ ID NO: 10), negative control peptide, reference compound]
direct binding to immobilized TSP-1 (TSP-1 [2]): did not

Substance: V36-R42: the active site of the antisecretory factor (VCHSKTR; UniProt P55036 36-42, looked up, fragment) [reference compound]
cell viability, angiocidin and fragments [3]: had no effect
